These results are taken from patent JP2010189402A (dated 2010).

Where a chain is given by its changes, count along the chain named. Where “and” joins values, the source holds several entries; their conditions need not be identical. Equal entries are not always repeated.

The chains are these.
B1: ヒト化抗CD20モノクローナル抗体 hz1791-ff (antibody, V domains shown)
VH: QIQLVQSGSELKKPGASVKVSCKASGYTFTNFGVNWVKQAPGKGLKWMGWINTYTGEPSYADDFKGRFAFSLDASASTAYLQISSLKAEDMATYFCTRRTNYYGTSYYYAMDYWGQGTTVTVSS
VL: STVMTQSPSFLSASVGDRVTITCKASQSVSNDVAWYQQKPGQSPKVLIYFASNRYTGVPDRFSGSGYGTDFTLTISSLQAEDVAVYFCQQDYSSPLTFGAGTKLEIK
notes: also called ff; hz1791-ff34
B2: ヒト化抗CD20モノクローナル抗体 hz1791-sf (antibody, V domains shown)
VH: B1 VH
VL: STVMTQSPDSLAVSLGERATINCKSSQSNSNDVAWYQQKPGQSPKVLIYFASNRYSGVPDRFSGSGYGTDFTLTISSLQAEDVAVYFCQQDYSSPLTFGAGTKLEIK
notes: also called sf; hz1791-sf43
B3: ヒト化抗CD20モノクローナル抗体 hz1791-fv (antibody, V domains shown)
VH: B1 VH with S9P, V20I, A76V, M91T, A92S
VL: B1 VL
notes: also called fv; hz1791-fv10
B4: 抗ヒトCD20マウスモノクローナル抗体 1k1782 (antibody, V domains shown)
VH: QVQLQQSGAELAKPGASVKMSCKASGYTFTSYWMHWVKQRPGQGLEWIGYITPSTGYTDYNKKFKDKATLTADRSSSTAYMHLSSLTSEDSAVYYCARSGPYFDVWGAGTTVTVSS
VL: DILLTQSPAILFVSPGERVSLSCRASQNIGTSIHWYQQRTNGSPRLLIKYASESFSGIPSRFSGSGSGTDFTLSINSVESEDIADYYCQQSNSWPFTFGSGTKLEIK
notes: Mouse monoclonal antibody from hybridoma; also called m1782
B5: 抗ヒトCD20マウスモノクローナル抗体 1K1228 (antibody, V domains shown)
VH: QVQLQQPGAELVKPGASVKVSCKASGFTFTSYNLHWVKQTPGQGLVWIGAIYPGNGDTSYNQKFRGKATLTADISSSTAYMQLSSLTSEDSAVYYCARYYYGYDAMDYWGQGTSVTVSS
VL: EIILTQSPTTMAASPGEKITITCSASSSISSYYLRWYQQKPGFSPKVLIYRTSNLASGVPARFSGSGSGTSYSLTIGTMEAEDVATYYCQQGNTVPLTFGSGTKLEIK
notes: Mouse monoclonal antibody from hybridoma; also called m1228
B6: 抗ヒトCD20マウスモノクローナル抗体 1k1402 (antibody, V domains shown)
VH: QVQLQQPGAELVKPGASVKMSCKASGFTFTSYNMHWVKQTPGQGLEWIGGIYPGNGDTSYNQKFKGKATLTADKSSSTAYMQLSSLTSEDSAVYYCARFYYYGSMGAMDYWGQGTSVTVSS
VL: QIVLSQSPAILSASPGEKVTMTCRASSSVSYMHWYQQKPGSSPKPWIYATSNLASGVPARFSGSGSGTSYSLTITRVEAEDAATYYCQQWTFNPPTFGAGTKLELK
notes: Mouse monoclonal antibody from hybridoma; also called m1402
B7: 抗ヒトCD20マウスモノクローナル抗体 1k1712 (antibody, V domains shown)
VH: QVQLQQPGAELVKPGASVKMSCKASGFTFTSYNLHWVKQTPGQGLEWIGAIYPGSGDTSYNQQFKGKATLTADKSSNTAYMQLNSLTSEDSAVYCCARSAMISTGNWYFDYWGQGTTLTVSS
VL: B6 VL with H33D, T75S, A82T, A99S, L105I
notes: Mouse monoclonal antibody from hybridoma; also called m1712
B8: ヒト化抗CD20モノクローナル抗体 hz1791-ss (antibody, V domains shown)
VH: B1 VH with K38R, D62Q, D63G, K65T, A76V, M91T
VL: B2 VL
notes: also called ss; hz1791-ss32
B9: 抗CD20キメラ抗体 1k1422 (antibody, V domains shown)
VH: QVQLQQPGAELVKPGASVKMSCRASGYTFTNYNMHWIKQTPGQGLEWIGAIYPGSGDTSYNRKFKGKATLTADTSSSTAYMQFSSLTSADSAVYYCARFTYYYGGTYGAMDYWGQGTSVTVSL
VL: QIVLTQSPPIMSASLGEEITLTCSASSRVSYMLWYQQKSGTSPKLLIYSTSNLASGVPSRFSGSGSGTFYSLTISSVEAEDAADYYCHQWTSNPCTFGGGTKLEIK
B10: 抗CD20キメラ抗体 1k0924 (antibody, V domains shown)
VH: QVQLQQPGAELVKPGASVKMSCKASGYTFTSYNIHWVKQTPGQGLEWIGAIYPGNGDTSYNQKFKGKATLTSDKSSSTAYMQLSSLTSEDSAVYYCARMSTMITGFDYWGQGTTLTVSS
VL: B6 VL with K38R, S71Y, L72F, T75S, T91N, F92S, F97H, A99G, L105I
B11: 抗CD20キメラ抗体 1k1736 (antibody, V domains shown)
VH: QVQLQQPGAELVKPGASVKMSCKASGYTFTTYNLHWVKQTPGQGLEWIGGIYPGNGDTSYNQKFKVKATLTADKSSNTAYMQLSSLTSEDSAVYYCARWIYYGNYEGTLDYWGQGTSVTVSS
VL: B6 VL with A13S, H33L, K44E, S64G, T75S, A99G, L105I

The target of one test is T1, ヒトCD20抗原 (human, UniProt P11836 1-297).
T1 construct: whole, on cells; Kd values were measured on Raji suspension cells that express CD20 naturally; also called CD20; ヒトCD20分子
T1 sequence (looked up): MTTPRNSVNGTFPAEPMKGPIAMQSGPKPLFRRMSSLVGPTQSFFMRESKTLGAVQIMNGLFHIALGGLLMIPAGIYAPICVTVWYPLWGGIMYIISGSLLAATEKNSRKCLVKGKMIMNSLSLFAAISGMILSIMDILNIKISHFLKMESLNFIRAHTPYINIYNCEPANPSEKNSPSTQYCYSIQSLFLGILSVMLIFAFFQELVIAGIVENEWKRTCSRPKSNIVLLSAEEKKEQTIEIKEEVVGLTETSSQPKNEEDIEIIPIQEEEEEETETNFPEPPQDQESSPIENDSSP
In words: Scatchard analysis, Raji cells, FITC-labelled secondary antibody fluorescence.
For orientation: Kd means the free concentration of one partner at which half of the binding sites on the other are occupied at equilibrium, for simple one-to-one binding. For the molecule B1, the Kd was less than 9.5 nM.

For B2, the Kd was 13 nM and 9.5 nM.

With B3, the Kd was less than 9.5 nM.

Another test concerns the target T1, ヒトCD20抗原. Nature of the test: Scatchard analysis, Raji cells.
For the molecule B4, the binding result is “binds”.

Regarding B5, the binding result is given as “binds”.

Take B6: the binding result is given as “binds”.

For the molecule B7, the binding result was “binds”.

Turning to B8, the binding result is “binds”.

The target of another test is T1, ヒトCD20抗原. Nature of the test: cell-based or functional assay.
Turning to B9, the “CDC 傷害活性 (RC−K8細胞)” value is ~10 %.

As to B10, the “CDC 傷害活性 (RC−K8細胞)” value was ~25 %.

For the molecule B11, the “CDC 傷害活性 (RC−K8細胞)” value was ~10 %.
